These are literature values, as cited in PMC3621282.

The target in this data set is VEGFR-2 (Homo sapiens) (UniProt P35968).
UniProt P35968, sequence (P35968 20-1356): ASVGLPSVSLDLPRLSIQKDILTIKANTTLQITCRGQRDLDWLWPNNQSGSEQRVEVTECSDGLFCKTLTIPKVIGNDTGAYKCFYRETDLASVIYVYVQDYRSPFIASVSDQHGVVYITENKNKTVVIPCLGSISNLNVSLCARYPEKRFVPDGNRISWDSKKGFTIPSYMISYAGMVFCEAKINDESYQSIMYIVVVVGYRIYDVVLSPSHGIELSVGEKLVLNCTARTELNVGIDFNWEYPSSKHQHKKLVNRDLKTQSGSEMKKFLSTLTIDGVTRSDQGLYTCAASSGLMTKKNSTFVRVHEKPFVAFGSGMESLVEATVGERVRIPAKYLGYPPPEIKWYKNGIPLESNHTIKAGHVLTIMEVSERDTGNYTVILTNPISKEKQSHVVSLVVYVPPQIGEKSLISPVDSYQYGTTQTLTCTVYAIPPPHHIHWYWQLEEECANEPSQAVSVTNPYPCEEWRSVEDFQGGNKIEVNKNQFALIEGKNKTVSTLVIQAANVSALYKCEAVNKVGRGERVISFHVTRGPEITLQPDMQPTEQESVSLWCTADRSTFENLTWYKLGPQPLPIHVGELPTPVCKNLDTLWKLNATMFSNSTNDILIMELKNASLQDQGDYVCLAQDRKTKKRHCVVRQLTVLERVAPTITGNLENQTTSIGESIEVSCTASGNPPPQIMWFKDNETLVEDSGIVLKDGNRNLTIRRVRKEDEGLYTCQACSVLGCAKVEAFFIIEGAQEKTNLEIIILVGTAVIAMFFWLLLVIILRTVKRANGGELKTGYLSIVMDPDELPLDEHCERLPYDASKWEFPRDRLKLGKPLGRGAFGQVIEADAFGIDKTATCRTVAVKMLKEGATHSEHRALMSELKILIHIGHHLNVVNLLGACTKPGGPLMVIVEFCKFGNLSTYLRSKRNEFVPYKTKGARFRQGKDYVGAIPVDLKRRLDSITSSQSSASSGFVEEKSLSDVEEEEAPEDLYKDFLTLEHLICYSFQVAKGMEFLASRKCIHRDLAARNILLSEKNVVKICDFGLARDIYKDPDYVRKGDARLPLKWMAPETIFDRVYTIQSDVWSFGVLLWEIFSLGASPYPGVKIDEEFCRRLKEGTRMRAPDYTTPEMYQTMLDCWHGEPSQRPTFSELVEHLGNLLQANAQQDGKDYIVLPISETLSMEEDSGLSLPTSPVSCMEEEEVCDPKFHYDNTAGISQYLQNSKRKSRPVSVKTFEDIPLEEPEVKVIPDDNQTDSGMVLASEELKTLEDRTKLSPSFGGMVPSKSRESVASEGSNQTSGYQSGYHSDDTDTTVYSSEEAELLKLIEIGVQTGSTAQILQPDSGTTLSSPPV

Broadly, the Kd is the equilibrium constant for the complex coming apart. As to VEGF (from UniProt P15692), the Kd is 0.1 nM.
